Test [1] deals with U2OS TNS3KO cells. The test is described as follows: α5 integrin-positive FBs, rescue of TNS3KO cells. The conditions noted are these: FN-coated, overnight; SNAKA51 antibody. The test is classed as cell-based, human. As for the experimental part: (§1) Cells were fixed in 4% paraformaldehyde (PFA, Sigma-Aldrich), which had been prewarmed to 37°C for 15 min before being washed three times with PBS. For immunofluorescence staining, cells were permeabilized with 0.5% Triton X-100 (Sigma-Aldrich) at room temperature for 5 min before being washed three times with PBS. Blebbistatin (Tocris Bioscience) was diluted in dimethyl sulfoxide (Sigma-Aldrich) and used at a final concentration of 50 μM. […]
(§2) Analysis of cell adhesion sites, FN fibrils, and LLPS condensates was performed using FIJI/ImageJ (version 1.54f) software ([Schindelin et al., 2012]). […] Prior to adhesion quantification, the images were background-subtracted using a rolling ball algorithm, followed by thresholding of adhesion sites and Analyse Particles functions in FIJI/ImageJ to quantify adhesions. Adhesion sites with sizes between 0.4 and 10 μm^2 were counted, except for adhesions in blebbistatin-treated cells, which were counted with sizes between 0.2 and 4 μm^2. […]

The next test relates to TLNKO cells. The test is described as follows: cell spreading of TLNKO cells. The test is classed as cell-based. The conditions noted are these: tensin3 expressed alone in TLNKO cells. The protocol: (§3) Cells were fixed in 4% paraformaldehyde (PFA, Sigma-Aldrich), which had been prewarmed to 37°C for 15 min before being washed three times with PBS. For immunofluorescence staining, cells were permeabilized with 0.5% Triton X-100 (Sigma-Aldrich) at room temperature for 5 min before being washed three times with PBS. Blebbistatin (Tocris Bioscience) was diluted in dimethyl sulfoxide (Sigma-Aldrich) and used at a final concentration of 50 μM. The following primary antibodies were diluted in 1% bovine serum albumin (BSA, Sigma-Aldrich): mouse anti-α5 integrin (SNAKA51, 1:100, NBP2-50146; Novus Biologicals), rat anti-β1 integrin (9EG7, 1:200; 553715; BD Biosciences), mouse anti-FN (IST-9, 1:100, ab6328; Abcam), rabbit anti-tensin3 (1:200, HPA055338; Atlas), mouse anti-EEA1 (1:500, 68065-1-IG; Proteintech), mouse anti-LAMP1 (1:200, ab320851; Abcam), mouse anti-paxillin (349, 1:400, mab3060; Sigma-Aldrich), rabbit anti-talin1 (1:200, 82856-4-RR; Proteintech), mouse anti-vinculin (hVin1, 1:500, V9264; Sigma-Aldrich), rabbit anti-KANK2 (1:100, HPA015643; Sigma-Aldrich), rabbit anti-kindlin2 (1:100, 11453-1-AP; Proteintech), rabbit anti-GIT1 (1:200, 26247-1-AP; Proteintech), mouse anti-phosphotyrosine (4G10, 1:200, 05-321X; Sigma-Aldrich), rabbit anti-G3BP1 (1:600, 13057-2-AP; Proteintech), rabbit anti-TDP43 (1:400, 10782-2-AP; Proteintech), and rabbit anti-GIGYF1 (1:400, ab121784; Abcam). […]

The subject of test [2] is active β1 integrin, TLNKO cells. Kind of test: 9EG7-positive (active β1 integrin) adhesions, TLNKO cells. The conditions noted are these: co-expressed with GFP-TLN1, vs talin1 and vector control. It is filed as cell-based. As for the experimental part: as §1, §2
For another test, the system named is β1 integrin, TLNKO cells. Kind of test: β1 integrin activation by flow cytometry, TLNKO cells. It is filed as cell-based. As for the experimental part:
To measure the level of β1 integrin activation, TLNKO cells were transfected in a 6-well plate for flow cytometry analysis. Cells were collected, washed, and resuspended in ice-cold staining buffer (1% BSA in PBS) before incubation with 9EG7 antibody (diluted 1:200 in staining buffer) for 1 h on ice. The cells were then washed three times with staining buffer. Alexa Fluor Plus 647 goat anti-rat (1:500 dilution in staining buffer, Invitrogen) secondary antibody was used to incubate the cells for 45 min on ice, before being washed twice with staining buffer and once with PBS. The cells were then fixed with 4% PFA for 15 min before a final wash with PBS. Flow cytometry analysis was performed using a Fortessa system (BD Biosciences) and FlowJo software.

For test [3], the system named is active β1 integrin, U2OS TNS3KO cells. Kind of test: β1 integrin-positive adhesions, U2OS TNS3KO cells. The conditions noted are these: FN-coated, overnight; 9EG7. It is filed as cell-based, human. The protocol: as §1, §2
Test [4] has as its system U2OS TNS3KO cells. The test is described as follows: adhesion stability under blebbistatin, U2OS TNS3KO cells. It is filed as cell-based, human. To be noted: blebbistatin 50 µM. As for the experimental part: as §3, §2
The test system of test [5] is NIH3T3 cells. The test is described as follows: adhesion stability under blebbistatin, NIH3T3 cells. The test is classed as cell-based, mouse. The conditions noted are these: blebbistatin 50 µM, 60 min; n = 64 (WT), 49 (L702E), 62 (ΔPTB), 71 (Cterm) cells. As for the experimental part:
as §1, §2

Test [6] relates to NIH3T3 cells. Kind of test: tensin3 condensate formation, NIH3T3 cells. The test is classed as cell-based, mouse. The conditions noted are these: n = 181 cells (WT), 168 cells (L702E). The protocol:
(§4) To establish a correlation between tensin3 expression and condensation formation, a maximum intensity Z-projection was performed on Z-stack images of NIH3T3 cells (step depth 0.2 μm). The integrated fluorescence intensity was measured by normalizing the mean pixel intensity of each cell to the average of all values in cells expressing mCh-TNS3. To measure the condensate coverage in NIH3T3 cells, the images were background-subtracted (rolling ball) and then thresholded. This was followed by the Analyse Particles function in FIJI/ImageJ to select round condensate structures (circularity 0.7–1.0) ([Bussi et al., 2023]; [Dumelie et al., 2024]) with a size larger than 0.1 μm^2. The same settings were applied to quantify the number of condensates in NIH3T3 and HFF cells.
The percentage of NIH3T3 cells transfected with mCh-TNS3 that form phase-separated condensates was quantified manually in images (610 × 499 μm) acquired with a 20× objective. To quantify the mean radius (R) of the condensates, the area covered by the condensates was divided by the number of condensates for each cell to obtain the mean size (A) of the condensates, followed by the formula of R = √(A/3.14).

The subject of test [7] is NIH3T3 cells. Kind of test: condensates on soft vs stiff PDMS, NIH3T3 cells. It is filed as cell-based, mouse. The conditions noted are these: 1.5 kPa vs 28 kPa FN-coated PDMS, overnight. The protocol:
Imaging dishes equipped with 40 µm-thick PDMS substrates (1.5 and 28 kPa) were purchased from ibidi. PDMS dishes were coated with 30 μg/ml FN for 1 h, followed by three washes with PBS. Dishes were incubated with DMEM for 10 min to equilibrate before cells were plated and incubated overnight at 37°C.
as §4

Test [8] has as its system NIH3T3 cells. The test is described as follows: client protein recruitment to tensin3 condensates. The test is classed as cell-based, mouse. The conditions noted are these: co-expressed or endogenous.
Description: Since the observed tensin3 condensates were derived from adhesion sites in a talin-regulated mechanosensitive manner, we wondered whether these condensates contain other adhesion components or signaling molecules. To address this question, we examined a selection of cell–matrix adhesion proteins that have been reported by others to be present in LLPS condensates. These proteins include LIMD1 ([Wang et al., 2021]), kindlin2 ([Hsu et al., 2023]), talin ([Hsu et al., 2023]; [Litschel et al., 2024]), KANK ([Guo et al., 2023]), tensin1 ([Lee et al., 2023]), vinculin ([Litschel et al., 2024]), and GIT1 ([Zhu et al., 2020]). We added the actin regulatory RhoGAP DLC1 to this selection, as it is known to bind tensin ([Liao et al., 2006]; [Shih et al., 2015]), and the RNA regulatory protein GIGYF1, which we had previously identified alongside many of the aforementioned proteins in tensin BioID datasets ([Atherton et al., 2022]). We also added stress granule components G3BP1 ([Tourrière et al., […]]) and TDP-43 ([Colombrita et al., 2009]). These proteins were either co-expressed as fluorescently tagged proteins (Fig. S4 I) or, where antibodies were available, probed endogenously in cells that formed GFP-TNS3 condensates (Fig. 8 A).
as §3

“Also recorded” adds a separate entry of the source.

B1: TNS3-WT: wild-type tensin3 (Homo sapiens), N-terminally labeled with GFP or mCherry, expressed in cells (protein, UniProt Q68CZ2 1-1445, looked up)
chain: MEEGHGLDLTYITERIIAVSFPAGCSEESYLHNLQEVTRMLKSKHGDNYLVLNLSEKRYDLTKLNPKIMDVGWPELHAPPLDKMCTICKAQESWLNSNLQHVVVIHCRGGKGRIGVVISSYMHFTNVSASADQALDRFAMKKFYDDKVSALMQPSQKRYVQFLSGLLSGSVKMNASPLFLHFVILHGTPNFDTGGVCRPFLKLYQAMQPVYTSGIYNVGPENPSRICIVIEPAQLLKGDVMVKCYHKKYRSATRDVIFRLQFHTGAVQGYGLVFGKEDLDNASKDDRFPDYGKVELVFSATPEKIQGSEHLYNDHGVIVDYNTTDPLIRWDSYENLSADGEVLHTQGPVDGSLYAKVRKKSSSDPGIPGGPQAIPATNSPDHSDHTLSVSSDSGHSTASARTDKTEERLAPGTRRGLSAQEKAELDQLLSGFGLEDPGSSLKEMTDARSKYSGTRHVVPAQVHVNGDAALKDRETDILDDEMPHHDLHSVDSLGTLSSSEGPQSAHLGPFTCHKSSQNSLLSDGFGSNVGEDPQGTLVPDLGLGMDGPYERERTFGSREPKQPQPLLRKPSVSAQMQAYGQSSYSTQTWVRQQQMVVAHQYSFAPDGEARLVSRCPADNPGLVQAQPRVPLTPTRGTSSRVAVQRGVGSGPHPPDTQQPSPSKAFKPRFPGDQVVNGAGPELSTGPSPGSPTLDIDQSIEQLNRLILELDPTFEPIPTHMNALGSQANGSVSPDSVGGGLRASSRLPDTGEGPSRATGRQGSSAEQPLGGRLRKLSLGQYDNDAGGQLPFSKCAWGKAGVDYAPNLPPFPSPADVKETMTPGYPQDLDIIDGRILSSKESMCSTPAFPVSPETPYVKTALRHPPFSPPEPPLSSPASQHKGGREPRSCPETLTHAVGMSESPIGPKSTMLRADASSTPSFQQAFASSCTISSNGPGQRRESSSSAERQWVESSPKPMVSLLGSGRPTGSPLSAEFSGTRKDSPVLSCFPPSELQAPFHSHELSLAEPPDSLAPPSSQAFLGFGTAPVGSGLPPEEDLGALLANSHGASPTPSIPLTATGAADNGFLSHNFLTVAPGHSSHHSPGLQGQGVTLPGQPPLPEKKRASEGDRSLGSVSPSSSGFSSPHSGSTISIPFPNVLPDFSKASEAASPLPDSPGDKLVIVKFVQDTSKFWYKADISREQAIAMLKDKEPGSFIVRDSHSFRGAYGLAMKVATPPPSVLQLNKKAGDLANELVRHFLIECTPKGVRLKGCSNEPYFGSLTALVCQHSITPLALPCKLLIPERDPLEEIAESSPQTAANSAAELLKQGAACNVWYLNSVEMESLTGHQAIQKALSITLVQEPPPVSTVVHFKVSAQGITLTDNQRKLFFRRHYPVNSVIFCALDPQDRKWIKDGPSSKVFGFVARKQGSATDNVCHLFAEHDPEQPASAIVNFVSKVMIGSPKKV
modifications: full-length N-terminal GFP or mCherry tag
notes: wild-type tensin3 (Homo sapiens), N-terminally labeled with GFP or mCherry, expressed in cells
Regarding B1, the α5 integrin-positive adhesions entry in the test with U2OS TNS3KO cells [1] was “α5 integrin-positive adhesions in the peripheral and central areas of the cells”. Moreover, the “rescue of cell spreading” value in the test on TLNKO cells is “did not rescue cell spreading”. The “fold change in 9EG7-positive adhesion sites” value in test [2] is recorded as “fivefold increase in adhesion sites”. Moreover, the “integrin activation, flow cytometry” value in the test on β1 integrin, TLNKO cells (co-expressed with GFP-TLN1, vs mCh-vector, triplicate) is “increased integrin activation”. Moreover, the “rescue of integrin activation” value with β1 integrin, TLNKO cells (tensin3 expressed alone in TLNKO cells, 9EG7) is on record as “did not rescue cell spreading (Fig. S3 A) or integrin activation”. Also, in test [3], the “rescue of adhesion formation” value is reported as “fully rescued adhesion formation”. Further, in the test on U2OS TNS3KO cells [4], the “subcellular localization of construct under blebbistatin” value was “remained in adhesion structures”. Moreover, the “adhesion stability under actomyosin inhibition” value in the test on U2OS TNS3KO cells [4] (60 min) is recorded as “remained present despite actomyosin inhibition”. In addition, the “construct-positive adhesions after blebbistatin” value in the test on NIH3T3 cells [5] is “largely remain after blebbistatin treatment”. The “Spearman's r, expression level vs condensate coverage” value in the test with NIH3T3 cells [6] is listed as 0.8773. In addition, the “condensates on soft vs stiff substrate” value in the test with NIH3T3 cells [7] is on record as “significant twofold increase”. The “proteins detected in condensates” value in the test on NIH3T3 cells [8] is “talin1 and talin2, vinculin, tensin1, and LIMD1, together with the microtubule-targeting protein KANK1 and KANK2, and DLC1 and GIGYF1”. For the same molecule, in the test with NIH3T3 cells [8] (listed as GFP-TNS3), the “proteins absent from condensates” value is “kindlin2 and GIT1, which regulate membrane protrusion ([Böttcher et al., 2017]; [Manabe et al., 2002]), were absent; also recorded: negative for G3BP1, TDP-43 (Fig. S4 J), or tyrosine phosphorylation”.

The values above are taken from PMC12637021, “Talin–tensin3 interactions regulate fibrillar adhesion formation and tensin3 phase separation” (The Journal of Cell Biology, 2025).
